Consider 76 variants from the RNAGym collection of RNA variant scans (doi:10.7554/elife.80360).

The labels stand for the following.
B1: Hairpin Ribozyme (parent)
chain: GUCCUCUUUCACGUGCGCGUGAAAGAGAGAAGUGAACCAGAGAAACACACGUUGUGGUAUAUUACCUGGUA

Variants of B1 are the subject of this data set. As to the kind of experiment: self-cleavage, relative activity (ratio to wild type); higher = more cleavage; co-transcriptional.
As for GUCCUCUUUCACGUACGCGUGAAAGAGAGAAGUCAACCAGAGAAACACACGUUGUGGUAUAUUACCUGGUA, the self-cleavage worked out at 1.23. The result for GUCCUCUUUCACGUACGCGUGAAAGAGAGAAGUGAACCAGAGAAACACACGUUGUGGUAGAUUACCUGGUA reads 0.639.

For GUCCUCUUUCACGUACGCGUGAAAGAGAGAAGUGAACCAGAGAAACACACGAUGUGGUAUAUUACCUGGUA, the self-cleavage was determined as 0.863.

Regarding GUCCUCUUUCACGUCCGCGUGAACGAGAGAAGUGAACCAGAGAAACACACGUUGUGGUAUAUUACCUGGUA, the self-cleavage amounted to 1.15.

GUCCUCUUUCACGUCCGCGUGAAGGAGAGAAGUGAACCAGAGAAACACACGUUGUGGUAUAUUACCUGGUA: the self-cleavage was determined as 0.892.

Turning to GUCCUCUUUCACGUCCGCGUGAAAGAGAGAAGUGAACCAGAGCAACACACGUUGUGGUAUAUUACCUGGUA, the self-cleavage was 0.225. As to GUCCUCUUUCACGUACGCGUGAAAUAGAGAAGUGAACCAGAGAAACACACGUUGUGGUAUAUUACCUGGUA, the self-cleavage was 0.573.

As to GUCCUCUUUCACGUACGCGUGAAAGAGAGAAGUGAACCAGAGAAACACACGUUGUGGUAUAUUACCGGGUA, the self-cleavage was found to be 0.234. The result for GUCCUCUUUCACGUACGCGUGAAAGAGAGAAGUGAACCAGAGAAACACACGUUGUGGUAUAUUACCCGGUA reads 0.24. As to GUCCUCUUUCACGUACGCGUGAAAGAGAGAAGUGAACCAGAGAAACACACGUUGUAGUAUAUUACCUGGUA, the self-cleavage stood at 0.135.

For GUCCUCUUUCACGUACGCGUGAAAGAGAGAAGUGAACCAGAGAAACACACGUUGUCGUAUAUUACCUGGUA, the self-cleavage was 0.172. For the variant GUCCUCUUUCACGUACGCGUGAAAGAUAGAAGUGAACCAGAGAAACACACGUUGUGGUAUAUUACCUGGUA, the self-cleavage was 0.373. The result for GUCCUCUUUCACGUACGCGUGAAAGAGAGAAGUGAACCAGAGAAACACACGUUGUGGUAUACUACCUGGUA reads 0.214; that for GUCCUCUUUCACGUCCGCGUGAAAGAGAGAAGUGAACCAGAGAAACACACGUUGUGGUAUAUUACCUGGUG, 0.98. For the variant GUCCUCUUUCACGUCCGCGUGAAAGAGAGAAUUGAACCAGAGAAACACACGUUGUGGUAUAUUACCUGGUA, the self-cleavage came to 0.113. For GUCCUCUUUCACGUCCGCGUGAAAGAGAGAAAUGAACCAGAGAAACACACGUUGUGGUAUAUUACCUGGUA the value was 0.263; for GUCCUCUUUCACGUCCGCGUGAAAGAGAGAACUGAACCAGAGAAACACACGUUGUGGUAUAUUACCUGGUA, 0.0609; for GUCCUCUUUCACGUCCGCGUGAAAGAGAGAAGUGAACCAGAGAAAGACACGUUGUGGUAUAUUACCUGGUA, 0.0585. As to GUCCUCUUUCACGUACGCGUGAAAGAGAGAAGUGAACCAGAGAAACACACGUUAUGGUAUAUUACCUGGUA, the self-cleavage came out at 0.572. For GUCCUCUUUCACGUACGCGUGAAAGAGAGAAGUGAACCAGAGAAACACACGUUCUGGUAUAUUACCUGGUA the value was 0.364; for GUCCUCUUUCACGUACGCGUGAAAGAGAGAAGUGAACCAGAGAAACACACGUCGUGGUAUAUUACCUGGUA, 0.907. As for GUCCUCUUUCACGUCCGCGUGAAAGAGUGAAGUGAACCAGAGAAACACACGUUGUGGUAUAUUACCUGGUA, the self-cleavage was 0.74. For the variant GUCCUCUUUCACGUACGCGUGAAAGAGAGAAGUGAACCAGAGAAACACACGUUGUGGUAUAUUACCUGGGA, the self-cleavage amounted to 0.838. For GUCCUCUUUCACGUACGCGUGAAAGAGAGAAGUGAACCAGAGAAACACACGUUGUGGUAUAUUACCUGGAA the value was 0.689; for GUCCUCUUUCACGUACGCGUUAAAGAGAGAAGUGAACCAGAGAAACACACGUUGUGGUAUAUUACCUGGUA, 0.841; for GUCCUCUUUCACGUACGCGUGAAAGAGAGAAGUGAACCAGAGAAACACACGUUGUGCUAUAUUACCUGGUA, 0.101. In the case of GUCCUCUUUCACGUACGCGUGAAAGAGAGAAGUGAACCAGAGAAACACACGUUGUGAUAUAUUACCUGGUA, the self-cleavage amounted to 0.167. The result for GUCCUCUUUCACGUCCGCGUGAAAGAGAGAAGUGAACCAGAGAAACACUCGUUGUGGUAUAUUACCUGGUA reads 0.102. For GUCCUCUUUCACGUCCGCGUGAAAGAGAGAAGUGAACCAGAGAAACACCCGUUGUGGUAUAUUACCUGGUA the value was 0.101; for GUCCUCUUUCACGUCCGCGUGAAAGAGAGAAGUGAACCAGAGAAACACGCGUUGUGGUAUAUUACCUGGUA, 0.523; for GUCCUCUUUCACGUACGCGUGAAAGAGAGAAGUGAACCAGAGAAACACACGUUGUGGUAUAUUACCUGCUA, 0.31.

GUCCUCUUUCACGUCCGCGUGAAAGAGAGAAGUGAACCAGAAAAACACACGUUGUGGUAUAUUACCUGGUA: the self-cleavage came to 0.0806. For GUCCUCUUUCACGUCCGCGUGAAAGAGAGAAGUGAACCAGAGAAACACACGUUGUGGUAUAUUAGCUGGUA the value was 0.369. As for GUCCUCUUUCACGUACGCGUGAAAGAGAGAAGUGAACCAGAGAAACACACGUUGUGGCAUAUUACCUGGUA, the self-cleavage was determined as 1.03. The result for GUCCUCUUUCACGUACGCGUGAAAGAGAGAAGUGAACCAAAGAAACACACGUUGUGGUAUAUUACCUGGUA reads 0.306; that for GUCCUCUUUCACGUACGCGUGAAAGAGAGAAGUGAACCACAGAAACACACGUUGUGGUAUAUUACCUGGUA, 0.112; that for GUCCUCUUUCACGUCCGCGUGAAAGAGAGAAGUGAACCAAAGAAACACACGUUGUGGUAUAUUACCUGGUA, 0.315. Take GUCCUCUUUCACGUACGCGUGAAAGAGAGAAGUGAACCAGAGAAACACAUGUUGUGGUAUAUUACCUGGUA: the self-cleavage is 0.356.

Consider GUCCUCUUUCACGUACGCGUGAAAGAGAGAAGUGAACCAGAGAAACACACGUUGUGGUAUAUUACGUGGUA, for which the self-cleavage came out at 0.0886. The result for GUCCUCUUUCACGUCCGCGUUAAAGAGAGAAGUGAACCAGAGAAACACACGUUGUGGUAUAUUACCUGGUA reads 1.06. The result for GUCCUCUUUCACGUCCGCGUCAAAGAGAGAAGUGAACCAGAGAAACACACGUUGUGGUAUAUUACCUGGUA reads 0.897; that for GUCCUCUUUCACGUCCGCGUGAAAGAGAGAAGUGAACCAGAGAAACACACGUUGUGGUAUCUUACCUGGUA, 0.0894; that for GUCCUCUUUCACGUCCGCGUGAAAGAGAAAAGUGAACCAGAGAAACACACGUUGUGGUAUAUUACCUGGUA, 0.148. For GUCCUCUUUCACGUCCGCGUGAAAGAGAGAAGUGAACCAGAGACACACACGUUGUGGUAUAUUACCUGGUA the value was 0.0713; for GUCCUCUUUCACGUCCGCGUGAAAGAGAGAAGUGAACCAGAGAUACACACGUUGUGGUAUAUUACCUGGUA, 0.18. As to GUCCUCUUUCACGUCGGCGUGAAAGAGAGAAGUGAACCAGAGAAACACACGUUGUGGUAUAUUACCUGGUA, the self-cleavage was 1.06.

For the variant GUCCUCUUUCACGUCCGCGUGAAAGUGAGAAGUGAACCAGAGAAACACACGUUGUGGUAUAUUACCUGGUA, the self-cleavage amounted to 0.777. In the case of GUCCUCUUUCACGUCCGCGUGAAAGAUAGAAGUGAACCAGAGAAACACACGUUGUGGUAUAUUACCUGGUA, the self-cleavage was 0.214. For GUCCUCUUUCACGUCCGCGUGAAAGACAGAAGUGAACCAGAGAAACACACGUUGUGGUAUAUUACCUGGUA the value was 0.204; for GUCCUCUUUCACGUACGCGUGAAAGAGAGAAGUGAACCAGAGAAACACACAUUGUGGUAUAUUACCUGGUA, 1.21; for GUCCUCUUUCACGUCCGCGUGAGAGAGAGAAGUGAACCAGAGAAACACACGUUGUGGUAUAUUACCUGGUA, 1.05.

GUCCUCUUUCACGUCCGCGUGAAAGAGAGAAGUGAACCAGAGAAACACACAUUGUGGUAUAUUACCUGGUA: the self-cleavage stood at 0.796.

Turning to GUCCUCUUUCACGUCCGCGUGAAAGAGAGAAGUGAACCAGAGAAACACACCUUGUGGUAUAUUACCUGGUA, the self-cleavage is 1.23. The result for GUCCUCUUUCACGUACGCGUGAAAGAGAAAAGUGAACCAGAGAAACACACGUUGUGGUAUAUUACCUGGUA reads 0.118.

In the case of GUCCUCUUUCACGUCCCCGUGAAAGAGAGAAGUGAACCAGAGAAACACACGUUGUGGUAUAUUACCUGGUA, the self-cleavage is 0.668.

In the case of GUCCUCUUUCACGUCCACGUGAAAGAGAGAAGUGAACCAGAGAAACACACGUUGUGGUAUAUUACCUGGUA, the self-cleavage came to 1.03. For GUCCUCUUUCACGUCCGCGUGAAAGAGAGAAGUGAACCGGAGAAACACACGUUGUGGUAUAUUACCUGGUA the value was 0.304; for GUCCUCUUUCACGUCCGCGUGAAAGAGAGGAGUGAACCAGAGAAACACACGUUGUGGUAUAUUACCUGGUA, 0.198.

With GUCCUCUUUCACGUCCGCGUGAAAGAGAGCAGUGAACCAGAGAAACACACGUUGUGGUAUAUUACCUGGUA, the self-cleavage is 0.377. The result for GUCCUCUUUCACGUACGCGUGAAAGAGAGAAGUGAACCAGAGAAACACACGUUGAGGUAUAUUACCUGGUA reads 0.146. For GUCCUCUUUCACGUACGCGUGAAAGAGAGAAGUGAACCAGAGAAACACACGUUGGGGUAUAUUACCUGGUA the value was 0.215; for GUCCUCUUUCACGUCCGCGUGAAAGAGAGAAGUGAACCAGAGAAACGCACGUUGUGGUAUAUUACCUGGUA, 0.108; for GUCCUCUUUCACGUACGCGUGAAAGAGAGAAGUGAACCAGAGAAACACACGUUGUGGUAUAUUAGCUGGUA, 0.326.

Take GUCCUCUUUCACGUACGCGUGAAAGAGAGAAGUGAACCAGAGAAACACACGUUGUGGUAUAUUAUCUGGUA: the self-cleavage is 0.235.

As to GUCCUCUUUCACGUCCGCGUGAAAGAGAGAAGUGAACCAGAGAAACAUACGUUGUGGUAUAUUACCUGGUA, the self-cleavage turned out to be 0.112. As for GUCCUCUUUCACGUACACGUGAAAGAGAGAAGUGAACCAGAGAAACACACGUUGUGGUAUAUUACCUGGUA, the self-cleavage was found to be 0.87. The result for GUCCUCUUUCACGUACGCCUGAAAGAGAGAAGUGAACCAGAGAAACACACGUUGUGGUAUAUUACCUGGUA reads 0.856.

Take GUCCUCUUUCACGUACGCAUGAAAGAGAGAAGUGAACCAGAGAAACACACGUUGUGGUAUAUUACCUGGUA: the self-cleavage was 0.898. The result for GUCCUCUUUCACGUACGCUUGAAAGAGAGAAGUGAACCAGAGAAACACACGUUGUGGUAUAUUACCUGGUA reads 0.942.

As to GUCCUCUUUCACGUCCGCGUGAAAGAGAGAAGUGAACCAGAGAAACACACGUUGUGGUAUAUUACUUGGUA, the self-cleavage was 0.555. In the case of GUCCUCUUUCACGUCCGCGUGAAAGAGAGAAGUGUACCAGAGAAACACACGUUGUGGUAUAUUACCUGGUA, the self-cleavage amounted to 0.703. Turning to GUCCUCUUUCACGUCCGCGUGAAAGAGAGAAGUGCACCAGAGAAACACACGUUGUGGUAUAUUACCUGGUA, the self-cleavage worked out at 0.628. For GUCCUCUUUCACGUCCGCGUGAAAGAGAGAAGUGAAUCAGAGAAACACACGUUGUGGUAUAUUACCUGGUA the value was 0.592. For GUCCUCUUUCACGUCCGCGUGAAAGAGAGAAGUGAAACAGAGAAACACACGUUGUGGUAUAUUACCUGGUA the value was 0.316; for GUCCUCUUUCACGUCCGCGUGAAAGAGAGAAGUGAUCCAGAGAAACACACGUUGUGGUAUAUUACCUGGUA, 0.505.

Regarding GUCCUCUUUCACGUCCGCGUGAAAGAGAGAAGUUAACCAGAGAAACACACGUUGUGGUAUAUUACCUGGUA, the self-cleavage amounted to 0.975.
